In test [1] the target is T1, hAMY3R (human, UniProt P30988).
T1 sequence 1: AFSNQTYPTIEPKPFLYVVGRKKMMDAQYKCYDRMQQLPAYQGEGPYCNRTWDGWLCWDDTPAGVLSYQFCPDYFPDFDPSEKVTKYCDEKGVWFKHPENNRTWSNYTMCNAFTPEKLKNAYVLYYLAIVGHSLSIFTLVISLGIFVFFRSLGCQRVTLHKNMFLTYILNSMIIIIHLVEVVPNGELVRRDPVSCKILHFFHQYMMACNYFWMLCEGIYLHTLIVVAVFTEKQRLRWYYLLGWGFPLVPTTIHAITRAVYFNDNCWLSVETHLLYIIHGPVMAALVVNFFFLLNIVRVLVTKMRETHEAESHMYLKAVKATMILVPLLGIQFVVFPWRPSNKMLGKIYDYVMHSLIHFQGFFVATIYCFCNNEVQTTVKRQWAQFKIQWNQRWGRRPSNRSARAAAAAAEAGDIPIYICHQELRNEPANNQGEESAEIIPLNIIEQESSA
T1 sequence 2: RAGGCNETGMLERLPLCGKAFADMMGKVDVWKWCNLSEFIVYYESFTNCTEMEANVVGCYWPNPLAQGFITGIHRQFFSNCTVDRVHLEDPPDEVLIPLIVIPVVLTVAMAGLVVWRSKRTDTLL
Put plainly: cell-based or functional assay.

The target of test [2] is hAM1R (human, UniProt Q16602). Put plainly: cell-based or functional assay.

Numbered stars: 1 amine (or outer) side, 2 acyl side, 3 side chain; on linkers, the order of the positions; unused ones are H or OH. Bridge positions count the residues as written; N and C are the ends. Square brackets hold non-standard residues; d marks the D form. Side chains are listed from the residue outwards. Ends that are not written are not given here. * marks the point of attachment. C20 diacid = O=C(O)CCCCCCCCCCCCCCCCCCC(=O)*; γGlu = O=C(O)[C@H](CCC(=O)[*:2])N[*:1]; Hyp = O=C(O)[C@@H]1C[C@@H](O)CN1; AEEA = NCCOCCOCC(=O)O Some results are limits rather than exact numbers.

B1: SEQ ID NO: 339 (peptide)
peptide: GCRTGTCTVQWLAHQIYQFTDKDKDNVAPRTKIGPNG[Hyp]-NH2
modifications: disulfide 2-7 (inferred); ends not checked
Turning to B1, the “hAMY3R EC50 (cAMP)” value in test [1] came to 0.047 nM. Also, the “hAM1R EC50 (cAMP)” value in test [2] is more than 5000 nM.

B2: SEQ ID NO: 352 (peptide)
peptide: GCRTGTCTVQWLAHQIYQFTDKDKDNVAPRSNIGPNG[Hyp]-NH2
modifications: disulfide 2-7 (inferred); ends not checked
On to B2, for which the “hAMY3R EC50 (cAMP)” value in test [1] turned out to be 0.04 nM. In test [2], the “hAM1R EC50 (cAMP)” value came out at 1120 nM.

B3: SEQ ID NO: 353 (peptide)
peptide: GCRFGTCTVQWLAHQIYQFTDKDKDNVAPRSKVGPQG[Hyp]-NH2
modifications: disulfide 2-7 (inferred); ends not checked
For the molecule B3, in test [1], the “hAMY3R EC50 (cAMP)” value is 0.027 nM. The “hAM1R EC50 (cAMP)” value in test [2] is 2920 nM.

B4: SEQ ID NO: 350 (peptide)
peptide: GCRFGTCTVQWLAHQIYQFTDKDKDNVAPRTKISPQG[Hyp]-NH2
modifications: disulfide 2-7 (inferred); ends not checked
As to B4, the “hAMY3R EC50 (cAMP)” value in test [1] was determined as 0.044 nM. In test [2], the “hAM1R EC50 (cAMP)” value turned out to be 1180 nM.

B5: SEQ ID NO: 349 (peptide)
peptide: GCRTGTCTVQWLAHQIYQFTDKDKDNVAPRTKVGPQG[Hyp]-NH2
modifications: disulfide 2-7 (inferred); ends not checked
In the case of B5, in test [1], the “hAMY3R EC50 (cAMP)” value is 0.046 nM. The “hAM1R EC50 (cAMP)” value in test [2] was more than 5000 nM.

B6: SEQ ID NO: 338 (peptide)
peptide: KCNTATCTVQWLAHQIYQATDKDKDNVAPPTNVGSNG[Hyp]-NH2
modifications: disulfide 2-7 (inferred); ends not checked
B6: the “hAMY3R EC50 (cAMP)” value in test [1] was found to be 0.089 nM. Also, the “hAM1R EC50 (cAMP)” value in test [2] is more than 5000 nM.

B7: SEQ ID NO: 35 (peptide)
peptide: {C20 diacid-γGlu}-KCNTATCTVQRLAHQIQQFTDKDKDNVAPPTNVGSNG[Hyp]-NH2
modifications: disulfide 2-7 (inferred); ends not checked
With B7, the “hAMY3R EC50 (cAMP)” value in test [1] turned out to be 0.009 nM. In addition, in test [2], the “hAM1R EC50 (cAMP)” value is more than 5000 nM.

B8: SEQ ID NO: 360 (peptide)
peptide: GCRTGTCTVQWLAHQIYQFTDKDKDNVAPRSNVSPNG[Hyp]-NH2
modifications: disulfide 2-7 (inferred); ends not checked
With B8, the “hAMY3R EC50 (cAMP)” value in test [1] amounted to 0.165 nM. In test [2], the “hAM1R EC50 (cAMP)” value was more than 5000 nM.

B9: SEQ ID NO: 342 (peptide)
peptide: GCRTGTCTVQWLAHQIYQFTDKDKDNVAPRSNVGPQG[Hyp]-NH2
modifications: disulfide 2-7 (inferred); ends not checked
For B9, in test [1], the “hAMY3R EC50 (cAMP)” value came out at 0.054 nM. Further, in test [2], the “hAM1R EC50 (cAMP)” value is more than 5000 nM.

B10: SEQ ID NO: 333 (peptide)
peptide: KCNAATCTVQWLAEQIYQFTDKDKDNVAPPTNVGSNG[Hyp]-NH2
modifications: disulfide 2-7 (inferred); ends not checked
In the case of B10, the “hAMY3R EC50 (cAMP)” value in test [1] stood at 0.236 nM. Further, the “hAM1R EC50 (cAMP)” value in test [2] was 107 nM.

B11: SEQ ID NO: 334 (peptide)
peptide: KCNTATCTVQWLAHQIYQFTDKDKDNVAPRTEVGSNGY
Turning to B11, the “hAMY3R EC50 (cAMP)” value in test [1] was found to be 0.013 nM. For the same molecule, the “hAM1R EC50 (cAMP)” value in test [2] is more than 5000 nM.

B12: SEQ ID NO: 34 (peptide)
peptide: KCNTATCTVQRLAHQIYQFTDKDKDNVAPRTKVGSNGY
With B12, the “hAMY3R EC50 (cAMP)” value in test [1] is 0.009 nM. In addition, the “hAM1R EC50 (cAMP)” value in test [2] was determined as 54.6 nM.

B13: SEQ ID NO: 337 (peptide)
peptide: GCRFGTCTVQWLAHQIYQFTDKDKDNVAPRTKISPNG[Hyp]-NH2
modifications: disulfide 2-7 (inferred); ends not checked
As to B13, the “hAMY3R EC50 (cAMP)” value in test [1] was 0.019 nM. Further, in test [2], the “hAM1R EC50 (cAMP)” value came out at 1580 nM.

B14: SEQ ID NO: 351 (peptide)
peptide: GCRIGTCTVQWLAHQIYQFTDKFKDNVAPRSKISPQT[Hyp]-NH2
modifications: disulfide 2-7 (inferred); ends not checked
Regarding B14, the “hAMY3R EC50 (cAMP)” value in test [1] was 0.943 nM. In addition, the “hAM1R EC50 (cAMP)” value in test [2] was more than 5000 nM.

B15: SEQ ID NO: 359 (peptide)
peptide: GCRTGTCTVQWLAHQIYQFTDKDKDNVAPRSNIGPQG[Hyp]-NH2
modifications: disulfide 2-7 (inferred); ends not checked
As for B15, the “hAMY3R EC50 (cAMP)” value in test [1] turned out to be 0.145 nM. Also, the “hAM1R EC50 (cAMP)” value in test [2] is more than 5000 nM.

B16: SEQ ID NO: 343 (peptide)
peptide: GCRFGTCTVQWLAHQIYQFTDKDKDNVAPRTKIGPNG[Hyp]-NH2
modifications: disulfide 2-7 (inferred); ends not checked
In the case of B16, the “hAMY3R EC50 (cAMP)” value in test [1] was 0.017 nM. For the same molecule, the “hAM1R EC50 (cAMP)” value in test [2] turned out to be 117 nM.

B17: SEQ ID NO: 341 (peptide)
peptide: GCRTGTCTVQWLAHQIYQFTDKDKDNVAPRTNIGPQG[Hyp]-NH2
modifications: disulfide 2-7 (inferred); ends not checked
Take B17: the “hAMY3R EC50 (cAMP)” value in test [1] turned out to be 0.029 nM. Further, the “hAM1R EC50 (cAMP)” value in test [2] is more than 5000 nM.

B18: SEQ ID NO: 335 (peptide)
peptide: GCRTGTCTVQWLAHQIYQFTDKDKDNVAPRTNVGPQGY
Consider B18, for which the “hAMY3R EC50 (cAMP)” value in test [1] turned out to be 0.015 nM. Further, the “hAM1R EC50 (cAMP)” value in test [2] is more than 5000 nM.

B19: SEQ ID NO: 354 (peptide)
peptide: GCRTGTCTVQWLAHQIYQFTDKDKDNVAPRTKVGPQGY
Turning to B19, the “hAMY3R EC50 (cAMP)” value in test [1] came out at 0.091 nM. The “hAM1R EC50 (cAMP)” value in test [2] was more than 5000 nM.

B20: SEQ ID NO: 346 (peptide)
peptide: GCRTGTCTVQWLAHQIYQFTDKDKDNVAPRSNVGPQGY
Consider B20, for which, in test [1], the “hAMY3R EC50 (cAMP)” value amounted to 0.085 nM. In addition, the “hAM1R EC50 (cAMP)” value in test [2] was more than 5000 nM.

B21: SEQ ID NO: 348 (peptide)
peptide: GCRTGTCTVQWLAHQIYQFTDKDKDNVAPRTNIGPNGY
Take B21: the “hAMY3R EC50 (cAMP)” value in test [1] was determined as 0.041 nM. Besides, the “hAM1R EC50 (cAMP)” value in test [2] was more than 5000 nM.

B22: SEQ ID NO: 345 (peptide)
peptide: GCRFGTCTVQWLAHQIYQFTDKDKDNVAPRSNVSPQGY
With B22, the “hAMY3R EC50 (cAMP)” value in test [1] turned out to be 0.051 nM. The “hAM1R EC50 (cAMP)” value in test [2] came to 113 nM.

B23: SEQ ID NO: 356 (peptide)
peptide: GCRTGTCTVQWLAHQIYQFTDKDKDNVAPRTNIGPQGY
Consider B23, for which the “hAMY3R EC50 (cAMP)” value in test [1] came out at 0.079 nM. Also, the “hAM1R EC50 (cAMP)” value in test [2] was more than 5000 nM.

B24: SEQ ID NO: 344 (peptide)
peptide: GCRTGTCTVQWLAHQIYQFTDKDKDNVAPRSKVGPQGY
For the molecule B24, the “hAMY3R EC50 (cAMP)” value in test [1] is 0.121 nM. Moreover, the “hAM1R EC50 (cAMP)” value in test [2] is more than 5000 nM.

B25: SEQ ID NO: 340 (peptide)
peptide: GCRFGTCTVQWLAHQIYQFTDKDKDNVAPRTNVSPQGY
Take B25: the “hAMY3R EC50 (cAMP)” value in test [1] worked out at 0.022 nM. For the same molecule, the “hAM1R EC50 (cAMP)” value in test [2] amounted to 671 nM.

B26: SEQ ID NO: 347 (peptide)
peptide: GCRTGTCTVQWLAHQIYQFTDKDKDNVAPRSKVGPNG[Hyp]-NH2
modifications: disulfide 2-7 (inferred); ends not checked
B26: in test [1], the “hAMY3R EC50 (cAMP)” value stood at 0.068 nM. Also, in test [2], the “hAM1R EC50 (cAMP)” value is more than 5000 nM.

B27: SEQ ID NO: 4 (peptide)
peptide: {C20 diacid-γGlu}-KCNTATCTVDRLAHQIYQFTDKDKDNVAPPTNVGSNG[Hyp]-NH2
modifications: disulfide 2-7 (inferred); ends not checked
As to B27, the “hAMY3R EC50 (cAMP)” value in test [1] stood at 0.006 nM. Besides, the “hAM1R EC50 (cAMP)” value in test [2] is more than 5000 nM.

B28: SEQ ID NO: 355 (peptide)
peptide: GCRTGTCTVQWLAHQIYQFTDKDKDNVAPRSKIGPNG[Hyp]-NH2
modifications: disulfide 2-7 (inferred); ends not checked
As for B28, the “hAMY3R EC50 (cAMP)” value in test [1] was determined as 0.14 nM. For the same molecule, in test [2], the “hAM1R EC50 (cAMP)” value was more than 5000 nM.

B29: SEQ ID NO: 358 (peptide)
peptide: GCRTGTCTVQWLAHQIYQFTDKDKDNVAPRTNVSPNG[Hyp]-NH2
modifications: disulfide 2-7 (inferred); ends not checked
As to B29, the “hAMY3R EC50 (cAMP)” value in test [1] came to 0.071 nM. For the same molecule, in test [2], the “hAM1R EC50 (cAMP)” value was more than 5000 nM.

B30: SEQ ID NO: 357 (peptide)
peptide: GCRTGTCTVQWLAHQIYQFTDKDKDNVAPRTKIGPQG[Hyp]-NH2
modifications: disulfide 2-7 (inferred); ends not checked
On to B30, for which the “hAMY3R EC50 (cAMP)” value in test [1] worked out at 0.115 nM. For the same molecule, in test [2], the “hAM1R EC50 (cAMP)” value was more than 5000 nM.

B31: SEQ ID NO: 336 (peptide)
peptide: GCRFGTCTVQWLAHQIYQFTDKDKDNVAPRTKIGPQG[Hyp]-NH2
modifications: disulfide 2-7 (inferred); ends not checked
For the molecule B31, the “hAMY3R EC50 (cAMP)” value in test [1] came to 0.029 nM. Also, in test [2], the “hAM1R EC50 (cAMP)” value was determined as 738 nM.

B32: SEQ ID NO: 36 (peptide)
peptide: KCK([AEEA-AEEA-γGlu-C20 diacid])TATCTVQRLAEQIYQFTDKDKDNVAPPTNVGSNG[Hyp]-NH2
modifications: disulfide 2-7 (inferred); ends not checked
Regarding B32, in test [1], the “hAMY3R EC50 (cAMP)” value was 0.009 nM. For the same molecule, in test [2], the “hAM1R EC50 (cAMP)” value was more than 5000 nM.

(Values after patent US12139520B2 (priority 2020, dated 2024).)
